{"source": "patent US5849885", "molecular_target": "casein fraction of whole cow milk", "assay": "competitive inhibition RIA of bLF in the casein pellet after centrifugation of whole cow milk, no addition (mean + SD, n=10); the same table gives 4 with +0.4M NaCl and 32 after acid precipitation", "data": [{"substance": "bovine lactoferrin (from UniProt P24627)", "values": [{"measurement": "% of total bLF found in the casein fraction", "result": 21, "unit": "%"}]}]}
